Results as given in patent US20070142277A1.

Target: endogenously expressed APP isoforms in SH-SY5Y cells (human) (UniProt P05067)
Assay: cell-based or functional assay

Sequence of endogenously expressed APP isoforms in SH-SY5Y cells (human) (P05067 18-770): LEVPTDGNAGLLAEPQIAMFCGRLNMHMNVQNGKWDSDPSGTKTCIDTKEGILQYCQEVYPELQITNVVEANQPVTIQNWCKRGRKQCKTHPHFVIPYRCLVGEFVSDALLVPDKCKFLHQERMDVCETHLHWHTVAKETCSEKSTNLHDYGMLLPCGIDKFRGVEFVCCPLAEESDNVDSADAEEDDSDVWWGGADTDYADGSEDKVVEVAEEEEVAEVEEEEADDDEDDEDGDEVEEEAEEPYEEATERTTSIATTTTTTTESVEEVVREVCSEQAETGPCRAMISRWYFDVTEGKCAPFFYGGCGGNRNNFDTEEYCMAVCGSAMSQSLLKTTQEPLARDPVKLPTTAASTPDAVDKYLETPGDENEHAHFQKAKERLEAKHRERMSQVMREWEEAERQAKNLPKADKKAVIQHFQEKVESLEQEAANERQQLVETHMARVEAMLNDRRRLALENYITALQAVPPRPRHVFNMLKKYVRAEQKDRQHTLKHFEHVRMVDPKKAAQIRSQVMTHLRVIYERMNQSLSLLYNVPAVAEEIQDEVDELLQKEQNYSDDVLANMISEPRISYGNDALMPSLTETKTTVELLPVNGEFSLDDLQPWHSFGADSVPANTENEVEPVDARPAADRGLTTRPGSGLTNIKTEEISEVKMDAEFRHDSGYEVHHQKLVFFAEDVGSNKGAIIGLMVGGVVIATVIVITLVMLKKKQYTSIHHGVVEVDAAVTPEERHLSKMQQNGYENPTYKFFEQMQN

Row | Aβ1-40 release, expressed as the percentage of control (cells transfected with the empty vector DNA) | Aβ release (% of control), Aβ1-40 ELISA of conditioned medium of transfected SH-SY5Y cells | Substance
1 | 200 % of control | 195 % of control | BACE455 (from UniProt P56817 46-501) (enzyme)
2 | – | 193 % of control | BACE501 (from UniProt P56817 46-501) (enzyme)
